These results are taken from article PMC9279154 (Nature, 2022).

Sequences and labels used below:
B1: 50 bp palindromic dsRNA (dsRNA)
RNA 1: GAGACUUGGGCAAUGUGACUGCUGAUCAGCAGUCACAUUGCCCAAGUCUCUU
RNA 2: B1 RNA 1
modifications: 5'-monophosphate on both strands
B2: Dcr-2(D1217N/D1476N), catalytically inactive mutant (enzyme, Drosophila melanogaster, UniProt A1ZAW0 1-1722, looked up)
chain: MEDVEIKPRGYQLRLVDHLTKSNGIVYLPTGSGKTFVAILVLKRFSQDFDKPIESGGKRALFMCNTVELARQQAMAVRRCTNFKVGFYVGEQGVDDWTRGMWSDEIKKNQVLVGTAQVFLDMVTQTYVALSSLSVVIIDECHHGTGHHPFREFMRLFTIANQTKLPRVVGLTGVLIKGNEITNVATKLKELEITYRGNIITVSDTKEMENVMLYATKPTEVMVSFPHQEQVLTVTRLISAEIEKFYVSLDLMNIGVQPIRRSKSLQCLRDPSKKSFVKQLFNDFLYQMKEYGIYAASIAIISLIVEFDIKRRQAETLSVKLMHRTALTLCEKIRHLLVQKLQDMTYDDDDDNVNTEEVIMNFSTPKVQRFLMSLKVSFADKDPKDICCLVFVERRYTCKCIYGLLLNYIQSTPELRNVLTPQFMVGRNNISPDFESVLERKWQKSAIQQFRDGNANLMICSSVLEEGIDVQACNHVFILDPVKTFNMYVQSKGRARTTEAKFVLFTADKEREKTIQQIYQYRKAHNDIAEYLKDRVLEKTEPELYEIKGHFQDDIDPFTNENGAVLLPNNALAILHRYCQTIPTDAFGFVIPWFHVLQEDERDRIFGVSAKGKHVISINMPVNCMLRDTIYSDPMDNVKTAKISAAFKACKVLYSLGELNERFVPKTLKERVASIADVHFEHWNKYGDSVTATVNKADKSKDRTYKTECPLEFYDALPRVGEICYAYEIFLEPQFESCEYTEHMYLNLQTPRNYAILLRNKLPRLAEMPLFSNQGKLHVRVANAPLEVIIQNSEQLELLHQFHGMVFRDILKIWHPFFVLDRRSKENSYLVVPLILGAGEQKCFDWELMTNFRRLPQSHGSNVQQREQQPAPRPEDFEGKIVTQWYANYDKPMLVTKVHRELTPLSYMEKNQQDKTYYEFTMSKYGNRIGDVVHKDKFMIEVRDLTEQLTFYVHNRGKFNAKSKAKMKVILIPELCFNFNFPGDLWLKLIFLPSILNRMYFLLHAEALRKRFNTYLNLHLLPFNGTDYMPRPLEIDYSLKRNVDPLGNVIPTEDIEEPKSLLEPMPTKSIEASVANLEITEFENPWQKYMEPVDLSRNLLSTYPVELDYYYHFSVGNVCEMNEMDFEDKEYWAKNQFHMPTGNIYGNRTPAKTNANVPALMPSKPTVRGKVKPLLILQKTVSKEHITPAEQGEFLAAITASSAADVFDMERLEILGNSFLKLSATLYLASKYSDWNEGTLTEVKSKLVSNRNLLFCLIDADIPKTLNTIQFTPRYTWLPPGISLPHNVLALWRENPEFAKIIGPHNLRDLALGDEESLVKGNCSDINYNRFVEGCRANGQSFYAGADFSSEVNFCVGLVTIPNKVIADTLEALLGVIVKNYGLQHAFKMLEYFKICRADIDKPLTQLLNLELGGKKMRANVNTTEIDGFLINHYYLEKNLGYTFKDRRYLLQALTHPSYPTNRITGSYQELEFIGNAILDFLISAYIFENNTKMNPGALTDLRSALVNNTTLACICVRHRLHFFILAENAKLSEIISKFVNFQESQGHRVTNYVRILLEEADVQPTPLDLDDELDMTELPHANKCISQEAEKGVPPKGEFNMSTNVDVPKALGDVLEALIAAVYLDCRDLQRTWEVIFNLFEPELQEFTRKVPINHIRQLVEHKHAKPVFSSPIVEGETVMVSCQFTCMEKTIKVYGFGSNKDQAKLSAAKHALQQLSKCDA
notes: Dicer-2 (Dcr-2), Drosophila melanogaster, UniProt A1ZAW0, full length with D1217N and D1476N; also called Dcr-2(DDNN); Dcr-2^DDNN; source: sf9 cells (Bac-to-Bac baculovirus), purified (Ni-NTA, Hitrap Q, 2nd Ni-NTA, SEC)
B3: Drosophila melanogaster Loquacious-PD (Loqs-PD), full length, tag removed (natural protein, UniProt Q9VJY9-4 1-359, looked up)
chain: MDQENFHGSSLPQQLQNLHIQPQQASPNPVQTGFAPRRHYNNLVGLGNGNAVSGSPVKGAPLGQRHVKLKKEKISAQVAQLSQPGQLQLSDVGDPALAGGSGLQGGVGLMGVILPSDEALKFVSETDANGLAMKTPVSILQELLSRRGITPGYELVQIEGAIHEPTFRFRVSFKDKDTPFTAMGAGRSKKEAKHAAARALIDKLIGAQLPESPSSSAGPSVTGLTVAGSGGDGNANATGGGDASDKTVGNPIGWLQEMCMQRRWPPPSYETETEVGLPHERLFTIACSILNYREMGKGKSKKIAKRLAAHRMWMRLQETPIDSGKISDSICGELEGEVSIIQDIDRYEQVSKDFEFIKI
notes: Loquacious-PD (Loqs-PD), Drosophila melanogaster, UniProt M9MRT5, full length (C-terminal residue Ile359); also called DmLoqs-PD; Loqs-PD^FL; source: E. coli BL21 (DE3), purified (Ni-NTA, ULP1 cleavage, 2nd Ni-NTA, SEC)
B4: His-tagged Loqs-PD, wild type (natural protein, Drosophila melanogaster, UniProt Q9VJY9-4 1-359, looked up)
chain: B3 chain
notes: Loquacious-PD (Loqs-PD), Drosophila melanogaster, UniProt M9MRT5, full length; The only construct described is in a modified pET28a with a 6×His-SUMO tag; also called WT; source: E. coli BL21 (DE3), purified

The target in data set [1] is Dcr-2 delta-dsRBD;Loqs-PD (Drosophila melanogaster;Drosophila …, UniProt A1ZAW0;Q9VJY9-4 1-1628;1-359, |). Briefly: cryo-EM; ATP, Mg2+; no further dsRNA bending; Cryo-EM and EMSA buffers not given in the material; with or without ATP and Mg2+. The settings on record: protein: recombinant;recombinant; tags: Ni-NTA purified;6xHis-SUMO removed by ULP1; copies: 1;1; 3' overhang 2 nt (UU) at both ends; 50 bp; self-complementary, 2 copies of one strand. Background: A gel shift assay detects complexes by their altered migration in electrophoresis.

The next data set addresses Dcr-2 DDNN;Loqs-PD (Drosophila melanogaster;Drosophila …, UniProt A1ZAW0;Q9VJY9-4 1-1722;1-359, D1217N;D1476N|). Briefly: cryo-EM; no ATP; initial binding state, dimer, 3.1 A; Cryo-EM and EMSA buffers not given in the material; with or without ATP and Mg2+. The conditions noted are these: protein: recombinant;recombinant; tags: Ni-NTA purified;6xHis-SUMO removed by ULP1; copies: 1;1; 3' overhang 2 nt (UU) at both ends; 50 bp; self-complementary, 2 copies of one strand.

A further data set concerns the target Dcr-2 WT;Loqs-PD (Drosophila melanogaster;Drosophila …, UniProt A1ZAW0;Q9VJY9-4 1-1722;1-359, |). The data set is described as follows: cryo-EM; ATP, Mg2+; post-dicing state, RNA cleaved 21 bp from terminus, 4.6 A; Cryo-EM and EMSA buffers not given in the material; with or without ATP and Mg2+. The settings on record: protein: recombinant;recombinant; tags: Ni-NTA purified;6xHis-SUMO removed by ULP1; copies: 1;1; 3' overhang 2 nt (UU) at both ends; 50 bp; self-complementary, 2 copies of one strand.

Data set [2] deals with the molecule itself. Briefly: cryo-EM structure; Dcr-2^DDNN–Loqs-PD with 50 bp dsRNA, without ATP: initial dsRNA-binding state (dimer), 3.1 Å.
The target in data set [3] is B2. The description is as above. The conditions noted are these: both partners purified.
The target of data set [4] is T1, Drosophila melanogaster Dicer-2 (Dcr-2), wild type (Drosophila melanogaster, UniProt A1ZAW0 1-1722).
T1 construct: Dicer-2 (Dcr-2), Drosophila melanogaster, UniProt A1ZAW0, full length; The pull-down methods call it 'untagged Dcr-2'; also called WT Dcr-2; Dcr-2^WT; source: sf9 cells (Bac-to-Bac baculovirus), purified (Ni-NTA, Hitrap Q, 2nd Ni-NTA, SEC)
Briefly: cryo-EM structure; Dcr-2^DDNN–Loqs-PD in the apo state (no dsRNA, no ATP); Dcr-2^DDNN–Loqs-PD with 50 bp dsRNA, ATP and Mg2+ (early-translocation, mid-translocation and active dicing states); WT Dcr-2–Loqs-PD with 50 bp dsRNA, ATP and Mg2+ (post-dicing state). The settings on record: both partners purified.

Data set [5] has as its target T1, Drosophila melanogaster Dicer-2 …. The data set is described as follows: pull-down; 1.25 μM His-tagged Loqs-PD and 0.6 μM untagged Dcr-2 mixed on ice for 30 min, then Ni-NTA agarose; 200 mM NaCl, 20 mM Tris pH 8.0, 5% glycerol, 20 mM imidazole, 4 °C, 1 h; SDS–PAGE. The settings on record: both partners purified.

Consider B1, for which the binding result (in data set [1]; with Dcr-2 DDNN;Loqs-PD; in the data set with Dcr-2 WT;Loqs-PD) was “binds” throughout. The term stoichiometry N denotes the number of molecules, sites or subunits per partner or assembly. Take B2: the “stoichiometry N” value in data set [2] is 2. In the case of B3, the binding result in data set [3] and in data set [4] was “binds” throughout.

On to B4, for which the binding result in data set [5] is on record as “binds”.
